Measured values from US20220002732A1, “INHIBIN AS TARGETABLE REGULATORS OF ANGIOGENESIS” (UNIVERSITY OF SOUTH CAROLINA, priority 2016, published 2022).

Experiments:
[1] = system: TGF-β receptor serine threonine kinases (ALK1-7); experiment: Panel of small molecule ALK inhibitors: inhibin-induced signaling and angiogenesis; format: cell-based; conditions: preliminary screen of ALK inhibitors
Description: The inhibin-α activation of the SMAD1/5 pathway was also examined to determine which receptor type is required. TGF-β receptor serine threonine kinases (ALK1-7) are used by other TGF-β ligands. Testing was done to determine which Type I receptor is utilized by inhibin by using a panel of small molecule inhibitors as a preliminary screen for different ALKs. […] Similarly, three type II receptors are expressed in cells: TBRII, ACTRII and BMPRII.

[2] = system: HMvEC-1 cells; experiment: Three-dimensional capillary sprouting and tube formation (number of meshes); format: cell-based, human
Protocol: FIG. 25 illustrates three-dimensional capillary sprouting and tube formation of HMvEC-1 cells in the presence of conditioned media (CM) from shControl SKOV3 cancer cells or CM from shINHA SKOV3 cancer cells (top), in the presence of CM from shControl SKOV3 cells in the presence of 10 μg/ml IgG or anti-inhibin-α (middle), and in the presence of CM from shControl treated with (+) or without (−) 300 pM recombinant Inhibin A alone and anti-inhibin-α antibody (10 μg/ml) (bottom). The bar graphs represent the average number of meshes quantified and represent duplicate trials. […] (Bar graphs show mean±SEM, ***P<0.001 and **P<0.01 (n=3), Student's t-test. Scale Bar=500 μm.)
Other TGF-β members have been reported to have effects on angiogenesis. FIG. 26 illustrates side-by-side comparison of angiogenesis results for HMvEC-1 cells treated as indicated with other TGF-β members (activin A, BMP9, TGFβ1) either alone or in the presence of inhibin-α. The robust effect of inhibin on angiogenesis can be seen. The bar graph represents quantitation of number of meshes.
FIG. 27 illustrates the capillary sprouting and tube formation of multiple endothelial cell types (HUVEC, HMvEC, MEEC) upon treatment with 300 pM inhibin-α for 16 hours and the broad effect of inhibin on angiogenesis in different cell types. The graphs represent the number of meshes, branches, and nodes quantified. (Bar graphs show mean±SEM, ***P<0.001 and **P<0.01 (n=3), Student's t-test. Scale Bar=500 μm.)
FIG. 32 illustrates three-dimensional capillary sprouting and tube formation of HMvEC-1 cells in the presence or absence of recombinant inhibin-α (300 pM) either untreated or pretreated with 100 μg/ml TRC105 for 30 minutes prior to inhibin-α treatment (left, scale bar=500 μm). Average number meshes/field was quantified 16 h after treatment and presented in the bar graph (middle). Minimum of 3 fields were counted and data represent duplicate trials. Western blotting for SMAD1/5 phosphorylation is shown (right) in response to 20 pM inhibin-α for up to 60 minutes.
FIG. 34 illustrates capillary sprouting and tube formation (left) in HMvEC-1 cells in response to inhibin-α in the absence and presence of 5 μM of TRC105 added 30 minutes prior to treatment with inhibin-α. The bar graph on the right represents the number of meshes quantified.

[3] = system: SMAD1/5; experiment: Western blot and staining for SMAD1/5 activation in endothelial cells (HMvEC-1, MEEC); format: cell-based, human, mouse
Protocol: (§1) Mouse Embryonic Endothelial Cells (MEEC) and Human Microvascular Endothelial Cells (HMvEC-1) were examined to determine the effect of inhibin-α on SMAD1/5 activation and on MAPK pathway activation, and specifically, on ERK1/2 activation. GAPDH or B-actin was used as control. Cells were incubated with 20 pM inhibin-α and examined over a time course of 60 minutes and also examined following 30-minute incubation over a dose course from 0 to 100 pM inhibin-α. Western blot results are shown of the HMvEC-1 (FIG. 17) and MEEC (FIG. 18). FIG. 19 presents the Western blot time course results following incubation of MEEC with inhibin-α for ERK1/2 activation. FIG. 20 presents image results from staining (Psmad1/5, DAP, and merged images) for HMvEC-1 cells (left) and MEEC cells (right) following incubation in inhibin-α or untreated (UT).
To determine if inhibin secreted by ovarian cancer cells activates the SMAD1/5 pathway in endothelial cells, conditioned media were obtained from stable cell lines that were generated from SKOV3 cells and OVCA420 cells with short hairpin RNA either as a control (with no effective sequence) (shControl), or directed at inhibin-α (shINHA), or stable unmodified SKOV3 cells. HMvEC-1 cells were then incubated in one of the conditioned media, as schematically illustrated in FIG. 22.

[4] = system: ERK1/2; experiment: Western blot for MAPK pathway ERK1/2 activation in endothelial cells (MEEC); format: cell-based, mouse; conditions: time course
Protocol: as §1

[5] = system: SMAD2/3; experiment: Western blot for SMAD2/3 activation in endothelial cells (HMvEC-1, MEEC); format: cell-based, human, mouse

NC(=O)c1ccc(-c2nc(-c3ccc4c(c3)OCO4)c(-c3ccccn3)[nH]2)cc1 [SB431542]
suppression of inhibin-induced signaling and angiogenesis [1]: not ALK3/6 or ALK5/4/7 (SB431542), suppressed

B1: TRCN105: humanized antibody to endoglin in clinical trials (antibody, chains of the INN, looked up, V domains shown)
VH: EVKLEESGGGLVQPGGSMKLSCAASGFTFSDAWMDWVRQSPEKGLEWVAEIRSKASNHATYYAESVKGRFTISRDDSKSSVYLQMNSLRAEDTGIYYCTRWRRFFDSWGQGTTLTVSS
VL: QIVLSQSPAILSASPGEKVTMTCRASSSVSYMHWYQQKPGSSPKPWIYATSNLASGVPVRFSGSGSGTSYSLTISRVEAEDAATYYCQQWSSNPLTFGAGTKLELK
inhibin-α-induced angiogenesis on loss or block of endoglin or ALK1 ([2]; endothelial cells with or without recombinant inhibin-α): inhibin does not induce angiogenesis

B2: recombinant Inhibin: recombinant Inhibin A, αβA heterodimer, used at 300 pM (protein, UniProt P05111 233-366; P08476 311-426, looked up)
Inhibin alpha chain: STPLMSWPWSPSALRLLQRPPEEPAAHANCHRVALNISFQELGWERWIVYPPSFIFHYCHGGCGLHIPPNLSLPVPGAPPTPAQPYSLLPGAQPCCAALPGTMRPLHVRTTSDGGYSFKYETVPNLLTQHCACI
Inhibin beta A chain: GLECDGKVNICCKKQFFVSFKDIGWNDWIIAPSGYHANYCEGECPSHIAGTSGSSLSFHSTVINHYRMRGHSPFANLKSCCVPTKLRPMSMLYYDDGQNIIKKDIQNMIVEECGCS
endothelial cell angiogenesis induced by tumor cell-produced inhibin (number of meshes) ([2]; HMvEC-1, CM from shControl SKOV3, antibody 10 μg/ml, recombinant Inhibin A 300 pM): can be recapitulated

B3: inhibin-α: α-subunit of inhibin, critical for the functionality of dimeric inhibin (both A and B) (protein, UniProt P05111 233-366, looked up)
Inhibin alpha chain: STPLMSWPWSPSALRLLQRPPEEPAAHANCHRVALNISFQELGWERWIVYPPSFIFHYCHGGCGLHIPPNLSLPVPGAPPTPAQPYSLLPGAQPCCAALPGTMRPLHVRTTSDGGYSFKYETVPNLLTQHCACI
SMAD1/5 pathway activation by cancer cell conditioned media ([3]; HMvEC-1 cells in conditioned media of shControl or shINHA SKOV3/OVCA420 cells): activates the SMAD1/5 pathway in endothelial cells in a paracrine manner
SMAD1/5 activation ([3]; endothelial cells, 20 pM over 60 minutes, 0 to 100 pM for 30 minutes): robust activator
angiogenesis (number of meshes), side-by-side with other TGF-β members ([2]; HMvEC-1, compared with activin A, BMP9, TGFβ1): robust effect
capillary sprouting and tube formation in multiple endothelial cell types ([2]; HUVEC, HMvEC, MEEC, 300 pM, 16 hours): broad effect
ERK1/2 activation [4]: robust activator
SMAD2/3 activation [5]: not equally an activator
